This is an account of results in US20250163167A1 (SYNTHEKINE, published 2025).

First the molecules themselves.
T1: hIL10Rb ECD antigen (human, UniProt Q08334 20-220)
T1 construct: Antigen of biopanning and PE-ELISA; also called extracellular domain of hIL10Rb
T1 sequence: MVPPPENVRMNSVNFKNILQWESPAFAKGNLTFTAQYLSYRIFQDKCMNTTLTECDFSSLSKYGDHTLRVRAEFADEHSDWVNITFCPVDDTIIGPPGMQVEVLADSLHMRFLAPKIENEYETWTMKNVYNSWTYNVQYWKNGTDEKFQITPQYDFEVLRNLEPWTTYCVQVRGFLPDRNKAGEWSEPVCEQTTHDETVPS

T2: hIL10Ra ECD antigen (human, UniProt Q13651 22-235)
T2 construct: also called ECD of IL10Ra; extracellular domain of hIL10Ra
T2 sequence: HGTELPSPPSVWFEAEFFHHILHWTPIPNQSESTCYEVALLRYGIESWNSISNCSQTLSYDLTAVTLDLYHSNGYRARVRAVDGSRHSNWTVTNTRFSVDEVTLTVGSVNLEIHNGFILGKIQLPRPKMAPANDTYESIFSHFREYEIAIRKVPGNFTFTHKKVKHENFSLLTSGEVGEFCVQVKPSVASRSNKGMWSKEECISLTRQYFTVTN

T3: human IL-10 receptor (hIL-10R alpha and beta chains) on HEK-Blue IL-10 reporter cells (human, UniProt Q13651 22-578; Q08334 20-325)
T3 sequence 1: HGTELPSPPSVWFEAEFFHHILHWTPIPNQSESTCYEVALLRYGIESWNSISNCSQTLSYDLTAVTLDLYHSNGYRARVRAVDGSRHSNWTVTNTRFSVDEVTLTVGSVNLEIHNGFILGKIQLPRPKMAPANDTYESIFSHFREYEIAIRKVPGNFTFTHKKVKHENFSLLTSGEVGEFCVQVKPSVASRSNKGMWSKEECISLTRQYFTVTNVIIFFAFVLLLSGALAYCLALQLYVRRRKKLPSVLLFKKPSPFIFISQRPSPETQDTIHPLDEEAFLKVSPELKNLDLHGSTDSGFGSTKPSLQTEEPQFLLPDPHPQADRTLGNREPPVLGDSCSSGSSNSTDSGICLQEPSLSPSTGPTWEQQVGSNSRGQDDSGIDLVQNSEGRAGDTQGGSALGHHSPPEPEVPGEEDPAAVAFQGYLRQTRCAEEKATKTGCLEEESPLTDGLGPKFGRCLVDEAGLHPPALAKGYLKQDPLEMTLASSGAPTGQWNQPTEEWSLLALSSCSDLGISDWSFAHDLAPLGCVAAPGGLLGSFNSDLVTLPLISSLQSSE
T3 sequence 2: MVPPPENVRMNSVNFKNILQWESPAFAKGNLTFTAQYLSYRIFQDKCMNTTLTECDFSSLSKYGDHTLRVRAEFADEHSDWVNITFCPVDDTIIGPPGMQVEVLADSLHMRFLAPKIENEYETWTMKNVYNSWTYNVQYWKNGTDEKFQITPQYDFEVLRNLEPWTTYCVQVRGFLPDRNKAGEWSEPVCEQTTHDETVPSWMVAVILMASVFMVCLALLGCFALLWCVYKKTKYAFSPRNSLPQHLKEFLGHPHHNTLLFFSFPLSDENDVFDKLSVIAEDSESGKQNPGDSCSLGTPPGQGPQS

B1: hIL10Rb VHH-2 (VHH)
VHH: QVQLQESGGGSVQAGGSLRLSCAASGYTYSSYCMGWFRQAPGKEREGVAAIDSDGSTRYADSVKGRFTISKDNAKNTLYLQMNSLKPEDTAMYYCAAEPYCSGGYKRTMVAEFGYWGQGTQVTVSS
notes: Phage clone, periplasmic extract
B2: hIL10Rb VHH-18 (VHH)
VHH: QVQLQESGGGSVQAGGSLRLSCAASGDTYSSYCMGWFRQAPGKEREGVAFIDSDGSTRYADSVEGRFTISKDNAKNTLYLQMNSLKPEDTAMYYCAAEPYCSGGYHRKEMAEFGYWGQGTQVTVSS
notes: as for B1
B3: hIL10Rb VHH-14 (VHH)
VHH: QVQLQESGGGSVQAGGSLRLSCAASGYTYSSGCMGWFRQAPGKEREGVATINSDGSTNYADSVKGRFTISKDNAKNTLYLQMNSLKPEDTGMYYCAAEPYCSGGYPRWSVAEFGYWGQGTQVTVSS
notes: as for B1
B4: hIL10Rb VHH-8 (VHH)
VHH: QVQLQESGGGSVQAGGSLRLSCAASGYSYSSYCMGWFRQAPGKEREGVAAIASDGSTSYADSVKGRFAISKDNAKNTLYLQMASLKPEDTAMYYCAAEPWCTGGYSRLTPAEYGYWGQGTQVTVSS
notes: as for B1
B5: hIL10Rb VHH-7 (VHH)
VHH: QVQLQESGGGSVQAGGSLRLSCAASGYTYSSGCMGWFRQAPGKEREGVATINSDGSTNYADSVKGRFTISKDNAKNTLYLQMNSLKPEDTAMYYCAAEPYCSGGYPRWSVAEFGYWGQGTQVTVSS
notes: as for B1
B6: hIL10Rb VHH-23 (VHH)
VHH: QVQLQESGGGSVQAGGSLRLSCAASGYTYSSYCMGWFRQAPGKEREGVAAIDSDGSTRYADSVKGRFTISKDNAKKILYLQMNSLKVEDTAMYYCAAEPYCSGGYKRTMVAEFGFWGQGTQVTVSS
notes: as for B1
B7: hIL10Rb VHH-11 (VHH)
VHH: QVQLQESGGGSVQAGGSLRLSCAASGYTYSSYCMGWFRQAPGKGREGVAAIDSDGSTRYADSVKGRFTISKDNAKNTLYLQMNSLKPEDTAMYYCAAEPYCSGGYKRTMVAEFGYWGQGTQVTVSS
notes: as for B1
B8: hIL10Rb VHH-9 (VHH)
VHH: QVQLQESGGGLVQPGGSLRLSCAASGYTYSSGCMGWFRQAPGKEREGVATINSDGSTNYADSVKGRFTISKDNAKNTLYLQMNSLKPEDTAMYYCAAEPYCSGGYPRWSVAEFGYWGQGTQVTVSS
notes: as for B1
B9: hIL10Rb VHH-17 (VHH)
VHH: QVQLQESGGGSVQAGGSLRLSCTVSRYTASVNYMGWFRQAPGKEREGVATIFTGAGTTYYANSVKGRFTISRDNAKNTAYLQMNSLKPEDTAMYYCAVDFRGGLLYRPAYEYTYRGQGTQVTVSS
notes: as for B1
B10: hIL10Rb VHH-5 (VHH)
VHH: QVQLQESGGGLVQPGGSLRLSCAASGYTYSSYCMGWFRQAPGKEREGVAHIDSDGSTTYADSVKGRFTISKDNAKNTLYLQMNSLKPEDTAMYYCAADPIPGPGYCDGGPNKYWGQGTQVTVSS
notes: as for B1
B11: hIL10Rb VHH-25 (VHH)
VHH: QVQLQESGGGSVQAGGSLRLSCAASGYTYSSYCMGWFRQAPGKEREGIAHIDSDGSTTYADSVKGRFTISKDNAKNTLYLQMNSLKPEDTAMYYCAADPIPGPGYCDGGPNNYWGQGTQVTVSS
notes: as for B1
B12: hIL10Rb VHH-22 (VHH)
VHH: QVQLQESGGGSVQAGGSLRLSCAASGYTDSRYCMGWFRKAPGKEREGVAHIDSDGSTSYADSVKGRFTISKDNAKNTLYLQMNSLKPEDTAMYYCAADPIPGPGYCDGGPNKYWGQGTQVTVSS
notes: as for B1
B13: hIL10Rb VHH-24 (VHH)
VHH: QVQLQESGGGSVQAGGSLKLSCAASGYTYSSYCMGWFRQAPGKEREGVAHIDSDGSTTYADSVKGRFTISKDNAKNTLYLQMNSLKPEDTAMYYCAADPIPGPGYCDGGPNNYWGQGTQVTVSS
notes: as for B1
B14: hIL10Rb VHH-10 (VHH)
VHH: QVQLQESGGGLVQPGGSLRLSCAASGYTYSSYCMGWFRQAPGKEREGVAHIDSDGSTTYADSVKGRFAISKDNAKNTLYLQMNSLKPEDTAMYYCAADPIPGPGYCDGGPNKYWGQGTQVTVSS
notes: as for B1
B15: hIL10Rb VHH-13 (VHH)
VHH: QVQLQESGGGSVQAGGSLRLSCAASGYTYSSYCMGWFRQAPGKEREGVAHIDSDGSTSYADSVKGRFTISKDNAKNTLYLQMNSLKPEDTAMYYCAADPIPGPGYCDGGPNNYWGQGTQVTVSS
notes: as for B1
B16: hIL10Rb VHH-20 (VHH)
VHH: QVQLQESGGGSVQAGGSLRLSCAASGYTYSSYCMGWFRQAPGKEREGVAHIDSDGSTTYADSVKGRFAISKDNAKNTLYLQMNSLKPEDTAMYYCAADPIPGPGYCDGGPNKYWGQGTQVTVSS
notes: as for B1
B17: hIL10Ra VHH2 (VHH)
VHH: QVQLQESGGGSVQAGGSLRLSCVASRYLYSTNYMAWFRQSPGKEREAVAVIYTASGATLYTDSVKGRFTISQDNAKMTVYLQMNRLKSEDTAMYYCAAVRKTDSYLFDAQSFTYWGQGTQVTVSS
notes: as for B1
B18: hIL10Ra VHH4 (VHH)
VHH: QVQLQESGGGSIQAGGSLRLSCAASRYLYSIDYMAWFRQSPGKEREPAAVIYTASGATFYPDSVKGRFTISQDNAKMTVYLQMNSLKSEDTAMYYCAAVRKTDSYLFDAQSFTYWGQGTQVTVSS
notes: as for B1
B19: hIL10Ra VHH3 (VHH)
VHH: QVQLQESGGGSIQAGGSLRLSCVASRYLYSTNYMAWFRQSPGKEREAVAVIYTASGATLYTDSVKGRFTISQDNAKMTVYLQMNRLKSEDTAMYYCAAVRKTDSYLFDAQSFTYWGQGTQVTVSS
notes: as for B1
B20: IL10R binding molecule of SEQ ID NO: 302 (bispecific antibody)
chain: QVQLQESGGGSVQAGGSLRLSCAASGYSNCSYDMTWYRQAPGKEREFVSAIHSDGSTRYADSVKGRFFISQDNAKNTVYLQMNSLKPEDTAMYYCKTDPLHCRAHGGSWYSVRANYWGQGTQVTVSSGGGSQVQLQESGGGSVEAGGSLRLSCAASGYTHSSYCMGWFRQAPGKEREGVAAIDVDGSTTYADSVKGRFTISKDNAKNTLYLQMNSLKPEDTGMYYCAAEFADCSSNYFLPPGAVRYWGQGTQVTVSSASHHHHHH
B21: IL10R binding molecule of SEQ ID NO: 303 (bispecific antibody)
chain: QVQLQESGGGSVQAGGSLRLSCAASGYSNCSYDMTWYRQAPGKEREFVSAIHSDGSTRYADSVKGRFFISQDNAKNTVYLQMNSLKPEDTAMYYCKTDPLHCRAHGGSWYSVRANYWGQGTQVTVSSGGGSQVQLQESGGGSVQAGGSLRLSCAASGYSYSSYCMGWFRQAPGKEREGVATIDSDGMTRYADSVKGRFTISKDNAKNTLYLQMNSLKPEDTAMYYCAAPLYDCDSGAVGRNPPYWGQGTQVTVSSASHHHHHH

The target in one experiment is T1, hIL10Rb ECD antigen. The experiment can be described thus: periplasmic extract ELISA (PE-ELISA) of phage clones. (ELISA stands for enzyme-linked immunosorbent assay.)
In the case of B1, the binding result is given as “binds”.
As to B2, the binding result is “binds”.
Still for that read-out and setting: then B3, with “binds”.
Same read-out and setting: then B4, with “binds”; and B5, with “binds”.
B6: the binding result is “binds”.
For B7, the binding result is “binds”.
The same measure, in the same setting: then B8, with “binds”; and B9, with “binds”.
Same read-out and setting: then B10, with “binds”; and B11, with “binds”.
Still for that read-out and setting: then B12, with “binds”; and B13, with “binds”.
Turning to B14, the binding result is recorded as “binds”.
Take B15: the binding result is given as “binds”.
Same read-out and setting: then B16, with “binds”.

A further experiment concerns the target T2, hIL10Ra ECD antigen. Described as above.
Consider B17, for which the binding result is listed as “binds”.
On the same count and under the same terms, then B18, with “binds”.
On the same count and under the same terms, then B19, with “binds”.

Another experiment deals with T3, human IL-10 receptor (hIL-10R alpha and …). The experiment can be described thus: cell-based or functional assay.
Take B20: the “Abs 630 (25 nM)” value was 1.98 Abs 630 and the “Abs 630 (100 nM)” value came out at 2.09 Abs 630.
For B21, the “Abs 630 (25 nM)” value worked out at 1.92 Abs 630 and the “Abs 630 (100 nM)” value was 1.93 Abs 630.
